The assay concerns the target (UreABC)3 urease apoprotein (Klebsiella aerogenes, UniProt P18316 1-100; P18315 1-106; P18314 1-567). Nature of the assay: native MS.

This note sets out measurements from paper PMC5884726 (Structure (London, England : 1993), 2018).

Chain of (UreABC)3 urease apoprotein (P18316 whole entry, chain 1 of 3): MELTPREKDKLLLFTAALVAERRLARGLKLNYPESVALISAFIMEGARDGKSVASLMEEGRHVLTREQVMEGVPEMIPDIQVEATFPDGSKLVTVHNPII
Chain of (UreABC)3 urease apoprotein (P18315 whole entry, chain 2 of 3): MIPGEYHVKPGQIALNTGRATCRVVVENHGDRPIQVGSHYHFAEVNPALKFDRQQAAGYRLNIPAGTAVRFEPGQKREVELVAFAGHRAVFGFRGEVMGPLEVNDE
Chain of (UreABC)3 urease apoprotein (P18314 whole entry, chain 3 of 3): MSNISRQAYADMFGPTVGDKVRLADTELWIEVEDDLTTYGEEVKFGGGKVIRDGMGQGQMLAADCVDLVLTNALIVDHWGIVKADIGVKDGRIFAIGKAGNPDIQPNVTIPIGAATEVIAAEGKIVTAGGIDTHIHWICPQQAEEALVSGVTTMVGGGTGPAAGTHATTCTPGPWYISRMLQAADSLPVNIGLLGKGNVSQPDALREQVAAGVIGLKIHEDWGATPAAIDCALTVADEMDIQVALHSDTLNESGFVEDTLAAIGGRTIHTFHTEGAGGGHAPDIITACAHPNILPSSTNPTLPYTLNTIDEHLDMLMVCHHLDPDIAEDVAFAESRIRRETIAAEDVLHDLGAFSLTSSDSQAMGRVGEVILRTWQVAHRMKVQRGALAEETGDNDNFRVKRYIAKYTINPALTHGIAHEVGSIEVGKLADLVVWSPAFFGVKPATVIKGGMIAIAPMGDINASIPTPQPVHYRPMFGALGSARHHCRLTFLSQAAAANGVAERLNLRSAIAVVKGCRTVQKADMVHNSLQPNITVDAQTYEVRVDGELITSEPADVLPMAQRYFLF

B1: maltose binding protein-UreD fusion protein (MBP-UreD) (natural protein, Klebsiella aerogenes, UniProt Q09063 1-270, looked up)
chain: MLPPLKKGWQATLDLRFHQAGGKTVLASAQHVGPLTVQRPFYPEEETCHLYLLHPPGGIVGGDELTISAHLAPGCHTLITMPGASKFYRSSGAQALVRQQLTLAPQATLEWLPQDAIFFPGANARLFTTFHLCASSRLLAWDLLCLGRPVIGETFSHGTLSNRLEVWVDNEPLLVERLHLQEGELSSIAERPWVGTLLCYPATDALLDGVRDALAPLGLYAGASLTDRLLTVRFLSDDNLICQRVMRDVWQFLRPHLTGKSPVLPRIWLT
Take B1: the binding result is recorded as “binds”.
